Earlier results in article PMC11641302.

Legend:
Nterm1 [1] = molecular target: Nterm1 (UniProt position 2, ----MPLLKFD)
Nterm1 [2] = molecular target: Nterm1 (UniProt position 2, ----MPVYMVY)

malonate semialdehyde decarboxylase (MSAD) (Pseudomonas pavonaceae)
pKa (Nterm1 [1]): ~9.2

cis-3-chloroacrylic acid dehalogenase (cis-CaaD) (Coryneform bacterium)
pKa (Nterm1 [2]): ~9.3
